{
  "source": "patent US11149086B2",
  "about": "“KV1.3 binding immunoglobulins” (Ablynx N.V., priority 2014, dated 2021)",
  "molecules": {"B1": {"name": "A019400003: monovalent anti-Kv1.3 Nanobody, family 1 (protein)", "VHH": "EVQLVESGGGLVQAGGSLSLSCTASGGTFRNFGMGWFRQAQGKEREFVAAISRTGGHTYYQDSVKGRFTISKDNAKNILSLQMNSLKPEDTAVYYCAARFRFGDGTYYYQRAFYDFWGQGTQVTVSS", "modifications": "Nanobody sequence"}},
  "key": {"[1]": {"test_system": "cyno Kv1.3", "sequence (as listed by the source)": "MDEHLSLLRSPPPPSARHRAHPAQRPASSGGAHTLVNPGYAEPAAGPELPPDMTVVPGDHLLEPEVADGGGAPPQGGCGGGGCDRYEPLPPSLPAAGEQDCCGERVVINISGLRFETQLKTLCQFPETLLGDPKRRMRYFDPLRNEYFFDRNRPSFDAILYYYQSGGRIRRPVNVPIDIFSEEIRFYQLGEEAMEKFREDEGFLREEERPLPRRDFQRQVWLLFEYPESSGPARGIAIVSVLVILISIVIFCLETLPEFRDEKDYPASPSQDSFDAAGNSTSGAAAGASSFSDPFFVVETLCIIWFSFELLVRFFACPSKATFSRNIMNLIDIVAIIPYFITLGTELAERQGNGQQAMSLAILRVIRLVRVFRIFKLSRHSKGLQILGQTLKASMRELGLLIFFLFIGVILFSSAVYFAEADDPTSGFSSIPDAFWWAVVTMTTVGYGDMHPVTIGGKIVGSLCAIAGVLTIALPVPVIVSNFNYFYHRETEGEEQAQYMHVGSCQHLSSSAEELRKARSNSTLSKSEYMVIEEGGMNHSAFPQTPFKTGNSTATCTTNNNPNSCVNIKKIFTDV", "assay": "125I-margatoxin competition on cyno Kv1.3 expressing CHO cells", "format": "binding, cynomolgus", "details": "150 pM I125 margatoxin", "procedure": "Periplasmic extracts were screened in a radioligand 125I-margatoxin competition assay to assess the blocking capacity of the expressed Nanobodies. Cynomolgous Kv1.3 was presented on CHO cells overexpressing Kv1.3.\nIn order to detect binding of margatoxin to cell expressed Kv1.3, a radiolabeled toxin was used (125I-margatoxin; MgTX; Perkin Elmer, NEX083). To setup the assay, first a titration series of the radiolabeled 125I-margatoxin was performed on the CHO-cyKv1.3 and parental CHO K1 cells. To have maximum sensitivity of the screening, the EC30 concentration (150 pM) was chosen for competition during screening and later on, also characterization.\nIn brief, 35 μl of periplasmic extract was added to 150 pM labeled margatoxin (50 μl) and 40000 CHO-cyKv1.3 cells that were seeded the day before in a poly-D-lysine coated 96-well plate (BD Biocoat, Cat354620) in a total of 200 μl. After two hours incubation at RT, cells were washed two times before read out was performed with 100 μl/well MicroScint-20 (Perkin Elmer) on a TopCount device (Perkin Elmer).\nAs reference compounds, a dilution series of ShK-1aJ (Smartox, #08SHK001) and unlabeled margatoxin (Alamone labs, Cat RTM-325) were included. […] For each sample the percentage block was determined using the control samples to determine the assay window. […]"}, "[2]": {"target": "T1, human Kv1.3 (Homo sapiens, UniProt P22001)", "T1 construct": "cell lines stably expressing the full length human Kv1.3 channel", "T1 sequence (P22001 whole entry)": "as the sequence (as listed by the source) above, with H4R, A23P, P38H, P47R, P269T, D275E, A284S, A285R, A497S counted along it", "assay": "FACS competition with FAM-labeled ShK on HEK293H human Kv1.3 cells", "format": "binding", "procedure": "To evaluate the competition between the toxin ShK and the Nanobodies for binding to Kv1.3, a FACS competition experiment was performed using HEK293H cells overexpressing human Kv1.3 and the parental HEK293H cells as background cell line. As detection reagent, FAM-labeled ShK was used (6-FAM-AEEAc-Stichodactyla helianthus Neurotoxin (ShK) (Bachem, H-6088, 1046522, PRT00000366/01/01)). To setup the assay, first a titration series of the labeled Shk-FAM was performed on the HEK293H Kv1.3 cells in order to determine the EC50 value for binding.\nIn brief, a dilution series of ShK or Nanobody were added together with the labeled toxin to 200 000 cells in a 96-well plate. After 90 minutes incubation at 4° C., cells were washed three times before read out was performed on a FACS Canto (Becton Dickinson). First a gate was set on the intact cells as determined from the scatter profile. Next, dead cells were gated out by their fluorescence profile from the TOPRO stain (5 nM, Molecular probes, T3605). […] The percentage of inhibition for Nanobodies blocking the interaction of ShK to human Kv1.3 is depicted in Table B-11."}},
  "data": [
    {"molecule": "B1", "values": [
      {"measurement": "block of I125 margatoxin binding, in words", "setting": "[1]", "result": "completely block"},
      {"measurement": "blocking of FAM labeled ShK binding to Kv1.3, in words", "setting": "[2]; 70 nM ShK-FAM", "result": "only partially blocked"},
      {"measurement": "% inhibition of ShK-Fam binding", "setting": "[2]; 70 nM ShK-Fam (100x EC50), HEK 293H hu Kv1.3 cells", "result": 87.13, "unit": "%"}
    ]}
  ]
}
